Assay: yeast display, Sf9 membrane polyspecificity reagent, FACS + sequencing; frameworks hold sequencing errors
In short: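 Nanobodies came from a synthetic yeast display library in Saccharomyces cerevisiae BJ5465, induced with galactose for 36–48 hours and stained for 1 hour at 4 °C with 10% biotinylated, detergent-solubilized Sf9 membrane reagent. Cells were enriched on streptavidin microbeads and then FACS-sorted, with low and high (top ~1%) gates set on anti-HA fluorescence for expression and streptavidin fluorescence for reagent binding. Each polyreactivity label reflects the gate a clone came from. Genes were amplified by colony PCR, sequenced by MiSeq 2 × 250 and filtered by CDR length.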
In the case of “QVQLVESGGGLVQAGGSLRLSCAASGSIFHSYAMGWYRQAPGKERDFVASITQRVGRTNYADSVKGRFTISRDNAKNTVYLQMNSLKPEDTAVYYFAASYWRLYYRRDYWGQGTQVTVSS”, the “polyreactivity (PSR sort gate)” value is reported as “high polyreactivity”.
For “QVQLVESGGGLVQAGGSLRLSCAASGRTFYPYAMGWYRQAPGKERELVAAITQSGGSTYYADSVKGRFTISRDNAKNTVFLEMNSLKPEDTAVYYCAKRGYDNYPFYYWGQGTQVTVSS”, the “polyreactivity (PSR sort gate)” value was “high polyreactivity”.
In the case of “QVQLVESGGGLVQAGGSLRLSCAASGSIFVGYAMGWYRQAPGKERDLVAAIDSTVSTYYADSVKGRFTISRDNAKNTVYLQMNSLKPEDTAVYYCAAYPRPDIGYTDGYVWYEFDYWGQGTQVTVSS”, the “polyreactivity (PSR sort gate)” value is reported as “low polyreactivity”.
For “QVQHVESGGGLVQAGGSLRLSCAASGRTFYRYAMGWYRQAPGKERELVAAISGSGTSTSYADSVKGRFTISRDNAKNSVYLQMNSLKPEDTAVYYCAATYYVYYYSRYYFWGQGTQVTVSS”, the “polyreactivity (PSR sort gate)” value was “high polyreactivity”.
With “QVQLVESGGGLVQAGGSLRLSCAASGSIFVNNAMGWYRQAPGKERELVAAISRSGTRTYYADSVKGRFTISRDNAKNTVYLQMNSLKPEDTAVYYCAVDYYYRMDYWGQGTQVTVSS” the “polyreactivity (PSR sort gate)” value was “high polyreactivity”.
In the case of “QVQLVESGGGLVQAGGSLRLSCAASGSIFAWYGMGWYRQAPGKERELVAAITSTGSTYYADSVKGRFTISRDNAKKTVYLQMNSLKPEDTAVYYCNAYSVYLWRPGDYWGQGTQVTVSS”, the “polyreactivity (PSR sort gate)” value is reported as “low polyreactivity”.
For “QVQLVESGGGLVQAGGSLRLSCAASGRIFLKNAMGWYRQAPGKERELVAVISRGGSTYYADSVKGRFTISRDNAKNTVYLQMNSLKPEDTAVYYCAAPYNVIFGGLDYWGQGTQVTVSS”, the “polyreactivity (PSR sort gate)” value was “high polyreactivity”.
In the case of “QVQLVESGGGLVQAGGSLRISCAASGFIFEQYAMGWYRQAPGKERELVARISWRGGSTYYADSVKGRFTISRDNAKNTVYLQMNSLKPEDTAVYYCAADVYTRFWRVYRFDYWGQGTQVTVSS”, the “polyreactivity (PSR sort gate)” value is reported as “low polyreactivity”.
With “QVQLVESGGGLVQAGGSLRLSCAASGRTFRFYAMGWNRQAPGKERELVAAINWTGGSTYYADSVKGRFTISRDNAKNTVYLQMNSLKPEDTAVYYCAKVQDYRFEYWGQGTQVTVSS” the “polyreactivity (PSR sort gate)” value was “high polyreactivity”.
With “QVQRVESGGGLVQARGSLRLSCAASGRIFTKYAMGWYRQAPGKVRELVAGITSRGGSTYYADSVKGRFTISRDIANNTGYLQMNSLKPEDTAVYYCNAYRVGRYDYWGQGTQVTVSS” the “polyreactivity (PSR sort gate)” value was “high polyreactivity”.
In the case of “QVQLVESGGGLVQAGGSLRLSCAASGNTFSVYTMGWYRQAPGKERELVAAITRGGDSTYYADSVKGRFTISRDNAKNTVYLQMNSLKPEDTAVYYCAADHDGPYAGYDSWGQGTQVTVSS”, the “polyreactivity (PSR sort gate)” value is reported as “low polyreactivity”.
For “QVQLVESGGGLVQAGGSLRLSCAASGSIFQENAMGWYRQAPGKERELVAAINTGSITSYADSVKGRFTISRDNAKNTVYLQMNSLKPEDTAVYYCAADSFSLYDSWGQGTQVTVSS”, the “polyreactivity (PSR sort gate)” value was “low polyreactivity”.
In the case of “QVQLVESGGGLVQAGGSLRLSCAASGSTFYNYAMGWYRQEPGKERELVAAINYSGGDTYYADSVKGRFTISRDNAKNTVYLQMNSLKPEDNAVYYCNAEWDYYSSNPVQNDYDYWGQGTQVTVSS”, the “polyreactivity (PSR sort gate)” value is reported as “high polyreactivity”.
With “QVQLVESGGGLVQAGGSLRLSCAASGLTFSLYAMGWYRQAPGKERELVAAISSSGSTYYADSVKGRFTISRDNAKNTVYLQMNSLKPEDTAVYYCAADAPWWIDPIAGNYWGQGTQVTVSS” the “polyreactivity (PSR sort gate)” value was “high polyreactivity”.
In the case of “QVQLVESGGGLVQAGGSLRLTCAASGRTYFYNAMGWYIKAPGKERELVAAISTNGGSTYYADSVNGRFTISRDNAKNTVYLQMNSLKPEDTAVYYCNTYAKPHRSGGGLGGHYYWGQGTQVTVSS”, the “polyreactivity (PSR sort gate)” value is reported as “low polyreactivity”.
For “QVQLVESGGCIVQAGGSLRLSCAASGSIFTYNAMGWYRQAPGKERELVAAISASGGRTYYADSVKGRFTISRDNAKNTVYLQMNSLKPEDTAVYYCAARILVYGLRRFDYWGQGTQVNVSS”, the “polyreactivity (PSR sort gate)” value was “high polyreactivity”.
For “QVQLVESVGGLVQAGGSLRLSCAGSGRIFRNYAMGWYRQAPGKERELVAAISDSSGSTYYADSVKGRFTISRDNAKNTVYLQMNILKPEHTAVYFCRYYFGSGYYYWGQGTQVTVSS”, the “polyreactivity (PSR sort gate)” value was “high polyreactivity”.
With “QVQLVESGGGLVQAGGSLRLSCAASGSTFFLYDKGWYRQAPGKERELVAAITLSGGSTYYADSVKGRFTISRDNAKNTVYLQMNSLNPEDTAVYYCADKRHGSEVGRGRDYWGQGTQVTVSS” the “polyreactivity (PSR sort gate)” value was “high polyreactivity”.
In the case of “QVQLVESGGGLVQAGGSLRLSCAASGITFTENLMGWYRQAPGKERELVAGISRSGGITYFADSVKGRFTISRDNAKNTVYLQMNSLKPEDTSVYYCAADFYASYSPYYYWGQGTQVTVSS”, the “polyreactivity (PSR sort gate)” value is reported as “high polyreactivity”.
In the case of “QVQLVESGGGLVQAGGSLRLTCAASGSIFYVNAMGWYRQAPGKERELVAAISVRGGRTYYADSVKGRFTISRDNAKNTVYLQMNSLKPEDTAVYYCATRISTVGRYDYWGQGTQVTVSS”, the “polyreactivity (PSR sort gate)” value is reported as “high polyreactivity”.
In the case of “QVQLVESGGGLVQAGGSLRLSCAASGLIFKIYAMGWYRQAPGKERELVASISSNGGTYYADSVKGRFTISRDNAKKTVYLQMNSLKPEDTAVYYCNAKRVARYQYGASYNYWGQGTQVTVSS”, the “polyreactivity (PSR sort gate)” value is reported as “high polyreactivity”.
In the case of “QVQLVESGGGLVQAGGTLRLSCAPSGSTFFPYAMGWYRQAPGKEREFVSAIRGSGGVSTYYADSVKGRFTISRDNAKNTVYLQMNSLKPEDTAVYYCAKYVARRVPRGFYYWGQGTQVTVSS”, the “polyreactivity (PSR sort gate)” value is reported as “high polyreactivity”.
For “QVQLVESGGGLVQAGGSLRLSCAASGFTFGRYAMGWYRQAPGKERELVAAITRGSGGTYYADSVKGRFTISRDNAKNTVYLQMNSLKPEDTAVYYCATGSRSRGALRYAHFDYWGQGTQVTESS”, the “polyreactivity (PSR sort gate)” value was “high polyreactivity”.
In the case of “QVQIVESGGGLVQAGGSLRLSCAASGITFVPNAIGLYRQAPGKERELFDAITNGDSTNYADSVKGRFTISRDNAKNTVYLQMNSLKPEDTAVYYCAADSCAQRPNQGRVSLHYYWGQVTQVTVSS”, the “polyreactivity (PSR sort gate)” value is reported as “low polyreactivity”.
For “QVQLVESWGGLVQAGGSLRLSCAASGSTFVVIAMGWYRLAPGKERELVAAISTSGGTTYYADSVKGRFTISRDNAKNTVYLQMNSLKPEDTAVYYCAAGGKKRDDYWGQGTQVTVSS”, the “polyreactivity (PSR sort gate)” value was “high polyreactivity”.
In the case of “QVQLVESGGGLVQAGGSLRLSCAASGIIIKRNAMGWYRQAPGKEMELVAAISRSGGSTYYSDSVKGRFTISRDIAMNTVYLQMNSLKAEDTAVYYCAADWSEYPYDYWGQGTQVTVSS”, the “polyreactivity (PSR sort gate)” value is reported as “low polyreactivity”.
For “QVQLVESGGGLVQAGGSLRLSCAASGRTFGRNAMGWYRQAPGKEMELVAAISWTGGNTYYADSVKGRFTISRDNAKNTVYLQMNSLKPEDTAVYYCAARGRYVTPQPSYDYWGQGTQVTVSS”, the “polyreactivity (PSR sort gate)” value was “high polyreactivity”.
With “QVQLVESGGGLVQAGGSLRLSCAASGSTFDGNAMGWYRQAPGKERELVATINSDDSKNYADSVKGRFTISRDNAKNTVYLQMNSLKPEDTAVYYCAARLYVTPILSYVERYTNDYWGQGTQVTVSS” the “polyreactivity (PSR sort gate)” value was “low polyreactivity”.
With “QVQLVESGGGLVQAGGSLRLICAASGSTFSSNAMAWFRQAPGKERELVAAIDRGGSTNYADSVKGRFTISRDNAKNTVYFQMNCLKAEDTAVYYCKAERVTYDTGRAVLPGGYWGQGTQVTVSS” the “polyreactivity (PSR sort gate)” value was “low polyreactivity”.
With “QVQLVESGGGLVQAGGSLRLSCAASGRTLPINAMGWYIEAPGKERELVAAISTSGTRTYYADSVKGRFTISRDNAKNTVYLQMNSLKPEDTAVYYCNKDYWKVRSYDYCGQGTQVTVSS” the “polyreactivity (PSR sort gate)” value was “low polyreactivity”.
In the case of “QVHLVESGGGLVQAGGSIRLSCAASGSTFLVYAMGWYRPAPGKGRELVAAISRSGSSTYYADSVKGRFTISRDNAMNTVYLQMIRLKPEDTAVYYCNAYSQYWLGNNYWGQGTQVTVSS”, the “polyreactivity (PSR sort gate)” value is reported as “high polyreactivity”.
In the case of “QVKLVESGGGLVQAGGSLRLSCAASGSIFLVKVMGWYRQAPGKERELVAAITWSGGRTYYADSVKGRFTISRDNAKNTVYLQMIILKPEDTAVYYCAAEGWLLNGDSWGQGTQVTVSS”, the “polyreactivity (PSR sort gate)” value is reported as “high polyreactivity”.
In the case of “QVQLVESGGGLVQAGGSLRLSCAASGRTFWRNAMGWYRQAPGKERELVAAISRGASTNYADSVKGRYTISRDNAKNTVYLQMNSLKPEDTAFYYCAARYYYRYNYWGQGTQVTVSS”, the “polyreactivity (PSR sort gate)” value is reported as “high polyreactivity”.
In the case of “QVQLVESGGGLVQAGGSLRLSCAASGFIFGGYALGWYRQAPGKERELVAAISWSGDNTYYADSVKGRFTISRDNAKNTVYLQMNSLKPEDTAVYYCAADSYGQEYDYWGQGTQVTVSS”, the “polyreactivity (PSR sort gate)” value is reported as “low polyreactivity”.
For “QVQLVESGGGLVQAGGSLRLSCAASGRTFNSHVMRWYRQAPGKERELVAAISSRGGGTYYADSVKGRFTISRDNAKNTVYLQMNSLNPEDTAVYYCITVVSRSYRDGPPDPYDSWGQGTQVTVSS”, the “polyreactivity (PSR sort gate)” value was “high polyreactivity”.
With “QVQLVESGGGLVQAGGSLRLSCADSGSTFSYNAMGWYRQAPGKERELVATITYSGTSTHYADSVKGRFTISRDNAKNTVYLQMNSLKPEDTAVYYCNAYSKGWGLPDDYWGQGTLVTVSS” the “polyreactivity (PSR sort gate)” value was “low polyreactivity”.
In the case of “QVQLVESGGGLVQAGGSLRLSCAASGRILAANAMRWYRQAPGKERELVAAISWSGGRTYYADSVKGRFTISRDNAKNTVYLQMNSLKPEDTAVYYCASVRRYKMDYWGQGTQVTVSS”, the “polyreactivity (PSR sort gate)” value is reported as “high polyreactivity”.
With “QVQLVESGGGLDQAGGSLRLSCAASGSTFYYNAMGWYRQAPGKERELVAAISSDGSTNYADSVKGRFTISRDNAKNTVYLQMNSLKPEDTAVYYCAKKDFYFAPSPGYYRSRDYWGQGTQVTVSS” the “polyreactivity (PSR sort gate)” value was “low polyreactivity”.
With “QVQRVESGGGLVQAGGSLRLSCAASGRIFYPNAMGWYRQAPGTEREWVAGITRGGSTNYADSVKGRFTISRDNAKNTVYLQMNSLKPDDSAVDYCAKAIPAKIYSEAGSDYWGQGTQVTVSS” the “polyreactivity (PSR sort gate)” value was “low polyreactivity”.
For “QVQPVESGGGLVQAGGSLRLSCAASGSTFTVNAMRWYRQPPGNERELVAAITFSGTSTYYADSVKGRFTISRDNAKNTVYLQMNSLKPEDTAVYYCNAVVWGYSKSLGDTRTKYEYWGQVTQVTVSS”, the “polyreactivity (PSR sort gate)” value was “high polyreactivity”.
For “QVQLVESGGRLVQAGGSLRLSCAASGFIFAVYAMGSYRQAPGKECELVAAISRSSGSTYYADSVKGRFTISRHNAKNTVYLQMNSLKPEDTAVYYCAAVFLYRGYAQYDYWGQGTQVTVSS”, the “polyreactivity (PSR sort gate)” value was “high polyreactivity”.
For “QVQLVESGGGLVQAGGSLRLSCAASGSTSVPYTMGWYRQAPGKERELVAAISSSGGTTNYAVSVKGRFTISRDNAKNTVSLQMNSLKPEDTAVYYCAAEYYQWVAYSWNEMYYWGQGTQVTVSS”, the “polyreactivity (PSR sort gate)” value was “low polyreactivity”.
In the case of “QVQLVESGGGLVQAGGSLRLSCAPSGFTFYKNAMGWYRQAPGKERELVAAITSSGGSTYYADSVKGRFTISRDNAKNTVYLQMNSLKPEDTAVYYCAAYPQAYIADYDYWGQGTQVTVSS”, the “polyreactivity (PSR sort gate)” value is reported as “low polyreactivity”.
